Results as given in publication PMC6331412, “Protein Disulfide Isomerase Modulates the Activation of Thyroid Hormone Receptors” (Frontiers in Endocrinology, 2018).
One block for each molecule: values may come before it. Primed or numbered codes have the meaning given here. Ends that are not written are not given here. FITC′ = fluorescein isothiocyanate label

Tests used:
[1] = target: Fluorescein-SRC1–1 Coactivator Peptide 3; experiment: fluorescence polarisation; TR+T3 or the complex TR+T3:PDIA1 titrated from 1 to 7,000 nM into 50 nM fluorescein-SRC1 peptide; buffer A or B; triplicate
[2] = target: hTRβΔAB (amino acids 102–461) labelled with FITC (human) (UniProt P10828); experiment: fluorescence polarisation; oxidised PDIA1 (pre-incubated with 0.5 mM H2O2 for 30 min) titrated from 0.012 to 25 μM into 50 nM TR-FITC; 20 mM sodium phosphate pH 7.4, 150 mM NaCl, 5 mM MgCl2, no DTT in the buffer; with and without T3 by the methods, not given for the values
[3] = target: hTRα full length labelled with FITC (human) (UniProt P10827); experiment: as above
[4] = target: hTRβΔAB (amino acids 102–461) labelled with FITC (human) (UniProt P10828); experiment: fluorescence polarisation; reduced PDIA1 (pre-incubated with 0.5 mM DTT for 30 min) titrated from 0.012 to 25 μM into 50 nM TR-FITC; 20 mM sodium phosphate pH 7.4, 150 mM NaCl, 5 mM MgCl2, no DTT in the buffer; with and without T3 by the methods, not given for the values
[5] = target: hTRα full length labelled with FITC (human) (UniProt P10827); experiment: as above
[6] = target: hTRβΔAB (amino acids 102–461) labelled with FITC (human) (UniProt P10828); experiment: fluorescence polarisation; PDIA1 titrated from 0.012 to 25 μM into 50 nM TR-FITC pre-incubated with 3 times molar excess of T3; 20 mM sodium phosphate pH 7.4, 150 mM NaCl, 5 mM MgCl2, 1 mM DTT; 20°C; Hill fit
[7] = target: hTRα full length labelled with FITC (human) (UniProt P10827); experiment: as above
[8] = target: hTRα full length, recombinant (human) (UniProt P10827); experiment: SEC; analytical gel filtration, Superdex 200 HR 10/300, buffer A or B with 150 mM NaCl and 2 mM DTT, 0.5 mL/min; hydrodynamic radii from calibration standards; proteins alone and mixed
[9] = target: hTRβΔAB (amino acids 102–461), recombinant (human) (UniProt P10828); experiment: as above
[10] = target: hTRβΔAB (amino acids 102–461) labelled with FITC (human) (UniProt P10828); experiment: fluorescence polarisation; PDIA1 titrated from 0.012 to 25 μM into 50 nM TR-FITC, without T3; 20 mM sodium phosphate pH 7.4, 150 mM NaCl, 5 mM MgCl2, 1 mM DTT; 20°C; Hill fit
[11] = target: hTRα full length labelled with FITC (human) (UniProt P10827); experiment: as above
[12] = target: T1, hTRβΔAB (amino acids 102–461), recombinant (human, UniProt P10828 102-461); experiment: fluorescence polarisation; TR+T3 or the complex TR+T3:PDIA1 titrated from 1 to 7,000 nM into 50 nM fluorescein-SRC1 peptide; buffer A or B; triplicate; details: both partners purified
T1 construct: numbers fit TRβ1 (461 aa); Unlabelled protein, used in SEC, DLS and, pre-incubated with T3, in the SRC1 anisotropy; also called TRβDL; source: E. coli BL21(DE3), purified (Talon resin, SEC Superdex 75)
T1 sequence (looked up): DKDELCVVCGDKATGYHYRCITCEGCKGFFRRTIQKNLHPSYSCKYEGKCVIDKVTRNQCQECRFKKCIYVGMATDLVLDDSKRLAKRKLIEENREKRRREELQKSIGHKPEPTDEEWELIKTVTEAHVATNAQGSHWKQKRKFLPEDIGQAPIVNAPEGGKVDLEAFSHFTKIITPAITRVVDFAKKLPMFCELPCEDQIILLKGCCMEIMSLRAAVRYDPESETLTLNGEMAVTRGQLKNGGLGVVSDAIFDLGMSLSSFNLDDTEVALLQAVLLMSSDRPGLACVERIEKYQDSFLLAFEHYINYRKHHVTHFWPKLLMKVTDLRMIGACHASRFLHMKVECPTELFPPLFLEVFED

- Kd [1]: 700 nM
Molecule: TRα+T3:PDIA1 complex (from UniProt P10827-2 1-410; P07237 18-508)

- Kd [1]: 390 nM
Molecule: TRβ+T3:PDIA1 complex (from UniProt P10828 102-461; P07237 18-508)

- Kd [2]: > 102000 nM
- Kd [3]: 7900 nM
- Kd [4]: 4540 nM
- Kd [5]: 10700 nM
- Kd [6]: 2810 nM
- Kd [7]: 1970 nM
- stoichiometry N [8]: 1
- stoichiometry N [9]: 1
- Kd [10]: 2710 nM
- Kd [11]: 2050 nM
Molecule: hPDIA1 full length, recombinant (from UniProt P07237 18-508) (enzyme)

- Kd [1]: 290 nM
Molecule: hTRα full length, recombinant (from UniProt P10827-2 1-410) (receptor)

- Kd [12]: 680 ± 60 nM
B1: Fluorescein-SRC1–1 Coactivator Peptide 3 (peptide)
peptide: {FITC′}-KYSQTSHKLVQLLTTTAEQQL
notes: also called SRC1 peptide; CoA peptide; source: bought: Life-technologies
